Results: publication PMC2789664
Read-outs that look alike come from different tables or passages of the source.

Experiments:
GAPDH wild type [1] = molecular target: T1, GAPDH wild type (Homo sapiens, UniProt P04406 1-335); assay: competition EMSA
GAPDH wild type [2] = molecular target: T1, GAPDH wild type; assay: competition EMSA; remark: listed apart in the source
GAPDH wild type [3] = molecular target: T1, GAPDH wild type; assay: EMSA
GAPDH wild type [4] = molecular target: T1, GAPDH wild type; assay: competition EMSA; remark: listed apart in the source

T1 sequence (P04406 whole entry): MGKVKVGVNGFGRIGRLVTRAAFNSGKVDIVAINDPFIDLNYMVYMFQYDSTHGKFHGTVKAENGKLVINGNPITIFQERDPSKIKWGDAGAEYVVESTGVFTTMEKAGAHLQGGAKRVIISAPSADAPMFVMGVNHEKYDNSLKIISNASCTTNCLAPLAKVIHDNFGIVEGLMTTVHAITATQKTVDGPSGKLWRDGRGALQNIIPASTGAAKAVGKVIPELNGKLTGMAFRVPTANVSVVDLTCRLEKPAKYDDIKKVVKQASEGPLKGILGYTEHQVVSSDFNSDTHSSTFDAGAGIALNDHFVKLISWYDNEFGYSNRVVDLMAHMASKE

## TTAGGCTTAGGCTTAGGC (ssDNA) [ss-(TTAGGC)3]
GAPDH wild type [1]
  binding result: no binding

## TTTGGGTTTGGGTTTGGG (ssDNA) [ss-(TTTGGG)3]
GAPDH wild type [2]
  binding result: binds

## TTAGGGTTAGGGTTAGGG (ssDNA) [ss-(TTAGGG)3]
GAPDH wild type [3]
  Kd: 70 ± 5 nM

## AGATGTAGCAATAGTAGT (ssDNA) [control 18-mer]
GAPDH wild type [4]
  binding result: no binding

## TTAGCGTTAGCGTTAGCG (ssDNA) [ss-(TTAGCG)3]
GAPDH wild type [1]
  binding result: no binding

## ATAGGGATAGGGATAGGG (ssDNA) [ss-(ATAGGG)3]
GAPDH wild type [1]
  binding result: no binding

## AGGGTTAGGGTTAGGGTT (ssDNA) [ss-(AGGGTT)3]
GAPDH wild type [3]
  Kd: 45 ± 5 nM
